# Test results reported in PMC11283359 (Molecular cell, 2024).
# T1: 3XFLAG-MED26 (knock-in) (mouse (endogenous in CH12), UniProt Q7TN02 1-588)
# T1 sequence (looked up): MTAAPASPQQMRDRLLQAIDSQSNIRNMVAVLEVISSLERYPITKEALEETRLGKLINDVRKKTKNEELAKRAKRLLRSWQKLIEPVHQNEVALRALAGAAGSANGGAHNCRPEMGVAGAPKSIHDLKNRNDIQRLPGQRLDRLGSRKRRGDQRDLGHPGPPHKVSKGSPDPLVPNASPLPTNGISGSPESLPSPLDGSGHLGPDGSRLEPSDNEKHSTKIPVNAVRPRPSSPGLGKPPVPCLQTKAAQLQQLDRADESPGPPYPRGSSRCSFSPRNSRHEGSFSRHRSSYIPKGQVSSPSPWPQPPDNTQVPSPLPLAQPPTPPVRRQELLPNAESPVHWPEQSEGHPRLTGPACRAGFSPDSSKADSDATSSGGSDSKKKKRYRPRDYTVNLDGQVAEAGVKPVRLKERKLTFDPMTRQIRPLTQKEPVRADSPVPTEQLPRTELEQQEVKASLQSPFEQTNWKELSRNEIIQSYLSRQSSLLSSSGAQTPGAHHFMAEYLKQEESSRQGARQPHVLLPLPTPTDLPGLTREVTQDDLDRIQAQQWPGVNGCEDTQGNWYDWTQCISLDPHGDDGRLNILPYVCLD
# B1: MED21 (natural protein, mouse (endogenous in CH12), UniProt Q9CQ39 1-144, looked up)
# chain: MADRLTQLQDAVNSLADQFCNAIGVLQQCGPPASFSNIQTAINKDQPANPTEEYAQLFAALIARTAKDIDVLIDSLPSEESTAALQAASLYKLEEENHEAATCLEDVVYRGDMLLEKIQSALADIAQSQLKTRSVTHSHSLPDS
# B2: MED31 (endogenous) (natural protein, mouse (endogenous in CH12), UniProt Q9CXU1 1-131, looked up)
# chain: MAAAVAMETDDAGNRLRFQLELEFVQCLANPNYLNFLAQRGYFKDKAFVNYLKYLLYWKEPEYAKYLKYPQCLHMLELLQYEHFRKELVNAQCAKFIDEQQILHWQHYSRKRVRLQQALAEQQQQNNTAGK
# B3: MED7 (natural protein, mouse (endogenous in CH12), UniProt Q9CZB6 1-233, looked up)
# chain: MGEPQQVSALPPPPMQYIKEYTDENIQEGLAPKPPPPIKDSYMMFGNQFQCDDLIIRPLESQGIERLHPMQFDHKKELRKLNMSILINFLDLLDILIRSPGSIKREEKLEDLKLLFVHVHHLINEYRPHQARETLRVMMEVQKRQRLETAERFQKHLERVIEMIQNCLASLPDDLPHSEAGMRVKAEPMDTDDNSNCPGQNEQQRESSGHRRDQIIEKDAALCVLIDEMNERP
# Biological target: T1, 3XFLAG-MED26 (knock-in)
# Test: cryo-EM structure
row,binding result,Binder
1,binds,B1
2,binds,B2
3,binds,B3
